The subject of series [1] is yeast myristoylprotein of Mr 20 kDa. The series can be described thus: competition for [3H]myristate incorporation into yeast acylprotein in vivo. It is filed as cell-based. The conditions noted are these: Saccharomyces cerevisiae, 0.75 h; 100 μM unlabeled fatty acid or analog, 5 μM [3H]myristate, vs control cells; read-out: reduction in incorporation of [3H]myristate into yeast myristoylprotein of Mr 20 kDa. The method, then:
(§1) Saccharomyces cerevisiae strain BJ405 [MATα, trpl, prbl, prcl, pep4-3; Hemmings et al., Proc. Natl. Acad. Sci. USA 78, 435-439 (1981)] (previously referred to as JR153) was grown to mid-log phase (OD660 nm =1.0-1.2) in YPD medium (1% yeast extract/2% Bactopeptone/2% Dextrose) at 30° C. in a rotary shaker water bath. Cells were pretreated with Cerulenin at 2 μg/ml for 15 minutes and then incubated for 20-45 minutes with unlabeled myristate, palmitate or fatty acid analog at 100 μM in the presence of either 5 μM [9,10-^3 H(N)]-myristate (22.4 Ci/mmol) or L-[^35 S]methionine (1106 Ci/mmol) at 30 μCi/ml of culture.
(§2) Cells were cooled on ice 5 minutes, pelleted at 10,000×g, then broken and extracted by the method of Towler et al., Proc. Natl. Acad. Sci. USA 83, 2812-2816 (1986). Total protein synthesis was assayed by trichloroacetic acid (TCA) precipitation. Proteins were separated by SDS-12% polyacrylamide gel electrophoresis, and [^3 H]fatty acid incorporation into cellular acyl-proteins was assayed by autoradiography followed by laser densitometry.

A short description of series [2]: 2-octanol/water partition. It is filed as physicochemical. The protocol:
For these Examples, each analog synthesized is characterized by ^1 H and ^13 C NMR as well as mass spectroscopy. The analogs are then characterized kinetically as NMT substrates. Briefly, fatty acid analogs are converted to their CoA esters with Pseudomonas CoA ligase and incubated with the iodinated peptide GNAAS[^125 I]YRR and a source of NMT. […] The radiolabelled peptide is then used at concentrations which will lead to 50% enzyme saturation (i.e., at its Km) for the determination of fatty acid analog kinetic characteristics. Representative analogs with sulfur or oxygen in the backbone of the fatty acid chain serve as good substrates for NMT in vitro and will compete for incorporation of ^3 H labelled myri-state into yeast proteins in vivo. In addition, these analogs differ markedly in hydrophobicity from myri-state as measured both by C18 reverse phase HPLC elution profiles and by 2-octanol/water partition coefficients. The analog CH3 O(CH2)11 COOH, for example, partitions into water 20 fold better than myristate. It is believed that these analogs will be incorporated into mammalian acylproteins in vivo and that their incorporation into these proteins will drastically alter protein processing or targeting. […]

Series [3] is described as follows: growth, toxicity and total protein synthesis in yeast cells. The format is cell-based. The conditions noted are these: s. cerevisiae bj405, vs control cells not exposed to exogenous fatty acid, read-out: reduction in total protein synthesis ([35S]methionine into TCA precipitable protein). The method, then:
as §1, §2

The subject of series [4] is Saccharomyces cerevisiae strain BJ405. The series is described as above. It is filed as cell-based. The method, then:
as §1, §2

The nature of series [5]: C18 reverse phase HPLC elution of fatty acyl peptides (hydrophobicity). Conditions: C18 reverse phase HPLC, acyl derivative of GNAAS[125I]YRR; Table 2. It is filed as physicochemical. The protocol:
The fatty acid analog acyl-peptide eluted 7 minutes earlier than the corresponding myristoyl peptide. The free peptide elutes in the void volume (3-5minutes).
This difference was evident when the HPLC elution characteristics of fatty acyl peptides were examined. The elution time of a particular acyl-peptide depends strongly on the peptide sequence as well as on the acyl chain attached to that peptide. For example, the elution times of fatty acyl derivatives of GNAAAARR are (in minutes) decanoic acid, 9; dodecanoic acid, 18; myristic acid, 24; and palmitic acid, 30. Elution times for fatty acyl derivatives of GNAAS[^125 I]YRR are 23 and 28 minutes for C12 and C14 fatty acids, respectively (FIG. 2). […] Such a change could alter the biological activity of myristoyl proteins.
(§3) For these Examples, each analog synthesized is characterized by ^1 H and ^13 C NMR as well as mass spectroscopy. The analogs are then characterized kinetically as NMT substrates. Briefly, fatty acid analogs are converted to their CoA esters with Pseudomonas CoA ligase and incubated with the iodinated peptide GNAAS[^125 I]YRR and a source of NMT. […] The radiolabelled peptide is then used at concentrations which will lead to 50% enzyme saturation (i.e., at its Km) for the determination of fatty acid analog kinetic characteristics. Representative analogs with sulfur or oxygen in the backbone of the fatty acid chain serve as good substrates for NMT in vitro and will compete for incorporation of ^3 H labelled myri-state into yeast proteins in vivo. In addition, these analogs differ markedly in hydrophobicity from myri-state as measured both by C18 reverse phase HPLC elution profiles and by 2-octanol/water partition coefficients. The analog CH3 O(CH2)11 COOH, for example, partitions into water 20 fold better than myristate. It is believed that these analogs will be incorporated into mammalian acylproteins in vivo and that their incorporation into these proteins will drastically alter protein processing or targeting. It is further believed that the incorporation of fatty acid analogs of both myristate and palmitate into ester linked and phosphatidyl inositol glycan linked acylproteins will also dramatically alter their properties. Since many viral proteins and oncogenes are acylated, these compounds represent a new class of potential antiviral and antineoplastic agents.

The next series addresses T1, yeast NMT (Saccharomyces cerevisiae, UniProt P14743).
T1 construct: 11,000-fold purified preparation of yeast NMT; endogenous in cells; host or cells: yeast (enzyme purified from yeast, 11,000-fold)
T1 sequence (P14743 1-455): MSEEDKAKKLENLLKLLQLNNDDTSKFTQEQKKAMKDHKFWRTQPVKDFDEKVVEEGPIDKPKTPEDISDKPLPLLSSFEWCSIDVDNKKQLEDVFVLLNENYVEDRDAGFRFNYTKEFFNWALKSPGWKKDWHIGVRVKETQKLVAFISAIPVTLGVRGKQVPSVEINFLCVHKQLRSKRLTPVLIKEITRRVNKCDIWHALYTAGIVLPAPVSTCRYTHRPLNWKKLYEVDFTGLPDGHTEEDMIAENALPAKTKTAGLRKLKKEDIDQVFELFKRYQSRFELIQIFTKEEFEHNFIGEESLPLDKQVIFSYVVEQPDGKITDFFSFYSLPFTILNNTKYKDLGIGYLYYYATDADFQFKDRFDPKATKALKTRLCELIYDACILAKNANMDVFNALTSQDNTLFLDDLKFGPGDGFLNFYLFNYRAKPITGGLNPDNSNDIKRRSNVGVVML
Nature of the series: kinetic characterisation of fatty acid analogs as yeast NMT substrates. The format is biochemical.
Source text: (§4) Similar results were obtained using an 11,000-fold purified preparation of yeast NMT [Towler et al., Proc. Natl. Acad. Sci. USA 84, 2708-2712 (1987)].
(§5) Other illustrative examples of the oxy- and thio-substituted fatty acid analog substrate compounds of the invention were synthesized in Examples 6 to 14 and tested in Example 15 as substrates for the yeast NMT.
as §3

Substrate in series [6]: CCCCCCCCCCCCCC(=O)O
The series is described as above. It is filed as biochemical. The conditions noted are these: other: peptide GNAAS[125I]YRR varied, fatty acid analog at 15 μM.
Source text: as §4, §5, §3

Substrate in series [7]: CCCCCCCCSCCCCC(=O)O
The series is described as above. The format is biochemical. The conditions noted are these: other: peptide GNAAS[125I]YRR varied, fatty acid analog at 15 μM.
Source text: as §4, §5, §3

Substrate in series [8]: CCCCOCCCCCCCCCCC(=O)O
Described as above. The format is biochemical. Conditions: other: peptide GNAAS[125I]YRR varied, fatty acid analog at 15 μM.
Source text: as §4, §5, §3

Substrate in series [9]: CCCOCCCCCCCCCC(=O)O
The description is as above. The conditions noted are these: other: peptide GNAAS[125I]YRR varied, fatty acid analog at 15 μM. It is filed as biochemical.
Source text: as §4, §5, §3

Substrate in series [10]: C#CCOCCCCCCCCCC(=O)O
The description is as above. The format is biochemical. Conditions: other: peptide GNAAS[125I]YRR varied, fatty acid analog at 15 μM.
Source text: as §4, §5, §3

Substrate in series [11]: CCOCCCCCCCCCCC(=O)O
The description is as above. Conditions: other: peptide GNAAS[125I]YRR varied, fatty acid analog at 15 μM. It is filed as biochemical.
Source text: as §4, §5, §3

Substrate in series [12]: COCCCCCCCCCCC(=O)O
The description is as above. It is filed as biochemical. The conditions noted are these: other: peptide GNAAS[125I]YRR varied, fatty acid analog at 15 μM.
Source text: as §4, §5, §3

Substrate in series [13]: CCCCCCCCOCCCCC(=O)O
The description is as above. The format is biochemical. Conditions: other: peptide GNAAS[125I]YRR varied, fatty acid analog at 15 μM.
Source text: as §4, §5, §3

Substrate in series [14]: CCCSCCCCCCCCCC(=O)O
The series is described as above. It is filed as biochemical. Conditions: other: peptide GNAAS[125I]YRR varied, fatty acid analog at 15 μM.
Source text: as §4, §5, §3

Substrate in series [15]: CCSCCCCCCCCCCC(=O)O
The series is described as above. It is filed as biochemical. The conditions noted are these: other: peptide GNAAS[125I]YRR varied, fatty acid analog at 15 μM.
Source text: as §4, §5, §3

Usually Km stands for the substrate concentration at which the rate is half of its maximum. As for `COCCCCCCCCCCCC(=O)O` [E, 12-(Methoxy)dodecanoic acid], the inhibition at 100 µM lay within 35 to 60% in series [1] and 10 to 15% in series [3]. Also, the “partition into water relative to myristate” value in series [2] was 20 fold. In addition, in series [4], the “difference in growth rates versus cells treated with 100 μM myristate” value is “No difference”. Also, the “Elution Time” value in series [5] is 12 to 13 min. For the same molecule, the “Peptide Vm” value on yeast NMT (peptide GNAAS[125I]YRR varied, fatty acid analog at 15 μM, myristate control = 100%) was determined as 177%. In addition, the “Acyl CoA Vm” value at yeast NMT (radiolabelled peptide at its Km, analog varied, myristate control = 100%) is ~ 110%. Moreover, on yeast NMT (radiolabelled peptide at its Km, analog varied, read-out: Acyl CoA Km), the Km was ~2 µM.

B1: yeast NMT (Saccharomyces cerevisiae S288C) (protein)
chain: MSEEDKAKKLENLLKLLQLNNDDTSKFTQEQKKAMKDHKFWRTQPVKDFDEKVVEEGPIDKPKTPEDISDKPLPLLSSFEWCSIDVDNKKQLEDVFVLLNENYVEDRDAGFRFNYTKEFFNWALKSPGWKKDWHIGVRVKETQKLVAFISAIPVTLGVRGKQVPSVEINFLCVHKQLRSKRLTPVLIKEITRRVNKCDIWHALYTAGIVLPAPVSTCRYTHRPLNWKKLYEVDFTGLPDGHTEEDMIAENALPAKTKTAGLRKLKKEDIDQVFELFKRYQSRFELIQIFTKEEFEHNFIGEESLPLDKQVIFSYVVEQPDGKITDFFSFYSLPFTILNNTKYKDLGIGYLYYYATDADFQFKDRFDPKATKALKTRLCELIYDACILAKNANMDVFNALTSQDNTLFLDDLKFGPGDGFLNFYLFNYRAKPITGGLNPDNSNDIKRRSNVGVVML
For the molecule B1, the Km is 10 µM in series [6]; 11.5 µM in series [7]; 42 µM in series [8]; 34 µM in series [9]; 28 µM in series [10]; 14.8 µM in series [11]. The Km in series [12] was 47.3 µM; in [13], 31 µM; in series [14], 47 µM; in series [15], 19 µM.

For the origin of these results see patent publication US5959145A, “Fatty acid analog enzyme substrates” (priority 1993, dated 1999).
